Data reported in article PMC9596371 (Nature Chemical Biology, 2022).
Residue numbers refer to the chain shown, from its start.

B1: COVA2-18 IgG (antibody, V domains shown)
VH: EVQLVQSGAEVKKPGSSVKVSCKASGGTFSSYAISWVRQAPGQGLEWMGGIIPIFGTTNYAQKFQGRVTITTDESTSTAYMELSSLRSEDTAVYYCARVYSYDSSGYYLEYWGQGTRVTVSS
VL: EIVLTQSPATLSLSPGERATLSCRASQSVSSYLAWYQQKPGQAPRLLIYDASNRATGIPARFSGSGSGTDFTLTISSLEPEDFAVYYCQQRSNWPPSITFGQGTRLEIK
B2: CV27 IgG (antibody, V domains shown)
VH: QVQLVESGGGVVQPGRSLRLSCAASGFTFSSYAMHWVRQAPGKGLEWVALISYDGSNKYYADSVKGRFTISRDNSKNTLYLQMNSLRAEDTAVYYCARSFGGSYYYGMDVWGQGTTVTVSS
VL: QSALTQPASVSGSPGQSITISCTGTSSDVGGYNYVSWYQQHPGKAPKLMIYDVSNRPSGVSNRFSGSKSGNTASLTISGLQAEDEADYYCSSYTSSSTPYVFGTGTKVTVL
B3: COV2-2147 IgG (antibody, V domains shown)
VH: B2 VH with V5A, L50V, F100T, G101S
VL: QSALTQPASVSGSPGQSITISCTGTSSDVGDYNYVSWYQQHPGKAPKLMIYDVSNRPSGVSNRFSGSKSGNTASLTISGLQAEDEAEYYCSSYTSSSTLLYVFGTGTKVTVL
B4: COVA2-14 IgG (antibody, V domains shown)
VH: B1 VH with E1Q, S35I, T58A, Y100R, S101Y, L109E, E110D, R117L
VL: B1 VL with K39E, S97M, I98Y, R105K, L106V
B5: COV2-2143 IgG (antibody, V domains shown)
VH: EVQLVESGGGLVQPGGSLRLSCAASGFTVSSNYMSWVRQAPGKGLEWVSVIYSAGSTYYADSVKGRFSISRDKSKNTLYLQMNSLRAEDTAVYYCAKEGGSGSLRYYYYGMDVWGQGTTVTVSS
VL: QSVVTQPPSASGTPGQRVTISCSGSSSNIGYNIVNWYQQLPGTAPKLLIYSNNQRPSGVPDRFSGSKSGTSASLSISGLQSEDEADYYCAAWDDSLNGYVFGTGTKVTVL
B6: COV2-2449 IgG (antibody, V domains shown)
VH: QVQLVESGGGVVQPGRSLRLSCATSGFTFSSFALHWVRQAPGKGLEWVTVISDDGNNKYYVDSVKGRFTISRDNSKNTLFLQMNSLRVEDTAIYYCARASYNSNWSIGEYFRDWGQGTLVTVSS
VL: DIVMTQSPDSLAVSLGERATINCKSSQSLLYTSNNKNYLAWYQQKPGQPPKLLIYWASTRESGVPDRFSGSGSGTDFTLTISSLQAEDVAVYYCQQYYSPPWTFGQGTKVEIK

These binders were tested against T1, SARS-CoV-1 spike protein (FL-GCN4-Avi-His, 2P, biotinylated trimer) (SARS-CoV (SARS-CoV-1), strain of …, UniProt P59594, stabilised, biotin on the Avi tag) (assay: BLI). Conditions: both partners purified.

Binder	binding result
B1	binds
B2	binds
B3	binds

Each binder was assayed against T1, SARS-CoV-1 spike protein … (assay: ELISA). Conditions: both partners purified.

Binder	binding result
B4	binds
B5	binds
B6	binds
